Results published in patent publication US12091399B2, “Phenyltetrazole derivatives as plasma kallikrein inhibitors” (Boehringer Ingelheim International GmbH, priority 2018, dated 2024).

How the values were obtained:
[1] = tested on: Cc1cc(=O)oc2cc(NC(=O)[C@H](CCCNC(=N)N)NC(=O)[C@H](C)NC(=O)[C@H](CCC(=O)OCc3ccccc3)NC(=O)OC(C)(C)C)ccc12; assay: Inhibition of FXIa (Ki); type: biochemical, human; conditions: other: substrate KM, enzyme FXIa; pH 7.8; 24.0 °C
Experimental: (§1) The ability of compounds of formula (I) to inhibit plasma kallikrein (PKK), Factor XIIa (FXIIa), Factor XIa (FXIa), Factor Xa (FXa), Factor IIa (alpha-thrombin; FIIa), plasmin, trypsin, tissue kallikrein 1 (TK1), Factor Vila (FVIIa), or FVIIa complexed with Tissue Factor, phospholipids and CaCl2) (FVIIa/TF/PL/CaCl2) was determined using the following biochemical assays in assay buffer (100 mM Tris, 150 mM NaCL, adjusted to a pH of 7.8 with HCl, and containing 0.1% (w/v) BSA and 0.05% (v/v) Tween20) in the presence of 1% (v/v) DMSO:
(§2) Human FXIa (0.5 nM or 0.016 U/mL; Enzyme Research Laboratories) was incubated at 24° C. with 0.25 mM fluorogenic substrate Boc-Glu(OBzl)-Ala-Arg-AMC.HCl (11575 from Bachem) and various concentrations of the test compound in assay buffer. Measurements were performed in a kinetic interval every 2nd minute for 16 min using a Spectramax M5 (Molecular Devices) with the following settings of the wavelength excitation of 350 nm and wavelength emission of 450 nm.
The pIC50 values were then fitted using a four-parametric fitting procedure using GraphPad Prism (version 6; GraphPad Software, Inc.). Respective Ki values were obtained by correction of the IC50 values for the respective KM value of the used substrate (see Table A for the obtained KM values of the used substrates) using the following formula: […]

[2] = tested on: Cc1cc(=O)oc2cc(NC(=O)[C@H](CCCNC(=N)N)NC(=O)[C@H](Cc3ccccc3)NC(=O)[C@@H]3CCCN3)ccc12; assay: Inhibition of PKK (Ki), kinetic assay; type: biochemical, human; conditions: other: substrate KM, enzyme PKK; pH 7.8; 24.0 °C
Experimental: as §1
as §2, with “PKK (1.78” for “FXIa (0.5”, “0.025” for “0.016”, “H-Pro-Phe-Arg-AMC (11295” for “Boc-Glu(OBzl)-Ala-Arg-AMC.HCl (11575”, “nm. The number of the compound corresponds to the number of the Example in the experimental section.” for “nm.”
The pIC50 values were then fitted using a four-parametric fitting procedure using GraphPad Prism (version 6; GraphPad Software, Inc.). […]

Chain of Human PKK (Homo sapiens) (chain, as listed by the source): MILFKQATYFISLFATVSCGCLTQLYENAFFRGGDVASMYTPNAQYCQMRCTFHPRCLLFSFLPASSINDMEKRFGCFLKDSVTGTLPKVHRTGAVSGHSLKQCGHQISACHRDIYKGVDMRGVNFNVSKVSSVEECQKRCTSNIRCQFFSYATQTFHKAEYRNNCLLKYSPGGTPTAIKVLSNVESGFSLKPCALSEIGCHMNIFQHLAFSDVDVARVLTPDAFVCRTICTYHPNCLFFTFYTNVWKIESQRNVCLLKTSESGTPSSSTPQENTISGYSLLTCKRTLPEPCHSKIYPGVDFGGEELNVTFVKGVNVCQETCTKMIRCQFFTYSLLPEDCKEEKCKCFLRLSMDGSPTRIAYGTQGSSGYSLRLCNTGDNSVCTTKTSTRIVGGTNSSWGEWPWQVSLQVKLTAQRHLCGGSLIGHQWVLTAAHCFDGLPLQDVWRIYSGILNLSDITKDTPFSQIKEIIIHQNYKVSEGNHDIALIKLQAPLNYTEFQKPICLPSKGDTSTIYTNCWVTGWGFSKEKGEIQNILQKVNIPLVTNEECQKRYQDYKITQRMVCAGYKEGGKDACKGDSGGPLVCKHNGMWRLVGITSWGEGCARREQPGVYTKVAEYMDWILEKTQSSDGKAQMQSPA

Substance	Km [1] [mM]	Km [2] [mM]
Human FXIa (Homo sapiens)	0.29	–
Human PKK (Homo sapiens)	–	0.16
